In the DeepSol protein solubility set:

assay: soluble on expression in E. coli; label from the status in PepcDB or PDB records

Sequence | soluble on expression in E. coli
MKFKDLRDFVQQLEQRGELKRIQMPISPVLEMTEICDRTLRAKGPALLFENPVGFDIPVLGNLFGTPERVAMGMGAEAVTELREIGKLLAFLKEPEPPKGLKDAWSKLPIFRKVIAMAPKVVKDAPCQEIVIEGDDVDLGMLPVQTCWPGDVAPLITWGLTVTKGPNKERQNLGIYRQQVIGRNKIIMRWLSHRGGALDFRDWCVKHPGEPYPVAVALGADPATILGAVTPVPDSLSEYAFAGLLRGSRTELIKCRGSNLQVPASAEIVLEGVIHPGEMANEGPYGDHTGYYNEVDSFPVLTVERITHRIKPIYHSTYTGRPPDEPAILGVALNEVFVPILQKQFPEIVDFYLPPEGCSYRMAVVTIKKQYPGHAKRVMLGVWSFLRQFMYTKFVIVTDDDINARDWNDVIWAITTRMDPKRDTVMIDNTPIDYLDFASPVSGLGSKMGLDATNKWPGETTREWGRAIVKDEATTRRVDEIWTQLGIDLEHHHHHH | not soluble
MGSDKIHHHHHHMDEALAHANGETPAVGDYMTRDVATVSADDTVSDVAARISESDHNGFPVTDGRHVEGFVSARDLLLADPDELLFKVMTEDLVVAHPEMDVTDAARVILRSGIQKLPVVDDAGNLVGIITNADVIRSQIERATPEKVGKLMRTLETIHGVSITEERRTVTISDVVPTQGKVYADELEGRRYELENGLAEPLVVIDNGSTGDDGSLLLADGHHRVMAAERAGVAEMDAYVIVLERAVDLGMARTARTEGLDSIADIDVVDYARHPLVETIERLQ | not soluble
MIFYFSGTGNSKWIAEQIAKAQNEVLVFMPNAIRDGIEEFVLADDEKVGFVFPVYSWGPPLSVLRFLDWITLSNYHSQYVFFVCSCGDDTGLTEELFRRALSRKGMECNAGFSVAMPNNYVLLPGFDVDKKELEKKKLDEAVGRVEEINDSITGKKIGFHCNEGSFPWFKTKVLNPLFNRFMTSAKPFYATDDCIGCKRCERICPVGNVVMIGWRPVWGMDCTSCLACYHVCPKHAVQYGRRTKRKGQYLNPNVSISHEAAAQLEHHHHHH | not soluble
MSSLLTIALAVTISCVNTVEDQYFGGQNAEPVAKVEQKATSNNTLADLEKDPLYPYIDKQNKLVEKNGIQYIENEENILVLANKDYSLQPTYTPPDLVRPNVTFSFGNEQVEKAQLRKEAGTALEEMFKAANQDGKKLFAVSGYRSYKRQQEVFQAEVNSKGDKKAREAVAYPGTSEHQTGLAMDISSENQSYELTEAFGTTPEGKWLEENAHNYGFILRYMKGREDITKYQYESWHYRYVGKDAATIIYKNNWTLEEFFEHVKALQKKVDAAK | not soluble
MASKLRRYIMNTTSLSLTPLLRHSVGFERFNDLFESMRNADDSTYAYPAYDIEKHGEDSYTITMAVPGFQESDLNIMVQNDQLTVSGRIQEKETKESEYLHRSIVTRAFEQTFRLADHMQVTGAEIKNGLLSIGLIREIPEEAKPRIIPIKSISDQESNKKGKTLEPESKKKISN | not soluble
MRNTKGNELEDREILASSLHANGISETVLLQIWNATEENLDKLVSALNVYKKGKISITWHEIMTVKENNEAIIPFSVAVQNIYGAFKNIDEELAELARNAIESGWVDAEPRENKPPGGFCAPFFSEKESRISMRYDGSIDSVRILAHELGHAWHFYNMSFEQSSSFLDDYLPMSTAESASIFFETLLINYLIQTTDSIDIKKSLLSWKIRNCFNYVMAIRASFEFEKNFYEKCKESPISADEIEKISIVAQEKAYGNALSEYQPFVWMKYVQFYIADVPFYNYPYTFGYLVSFSLLEIAKENKSTFHSKFKEFLRENGKAPVEELIKKHFEIDITSYAFWDKAFKQISKDIDAYLRLI | not soluble
MEELRFNSVFDIIGPVMIGPSSSHTAGAARIGKVVRSIFGQQPDSVDIYLYESFAKTYRGHGTDIALVGGLLGMEPDDEQLSNSLEIAYEQGMEVCFIPKSEKADHPNSVKIVVSSGDRKLSVTGISIGGGNIQISELNGFKLSLSMGTPTFIVVHQDVPGMIAKVTNILSASDINISTMTVTRESKGEKAIMIIEVDQAEVGDIVMQLAEIPHIYSVNYFD | not soluble
MNWVTHKPTFEFDNFSPFIRANTAWLGHLEFAYDLVRFEKPEILVELGTHMGASFFSFCQGVKDGGLATKCFAVDTWTGDGHTGPYGEGVFHIVDKVVKTSYPNIGNLIKSTFDEAVDQFQDGTINLLHIDGYHTYEAVSHDYKTWLPKLADNGIVLFHDIEVKDRNFGVYKFWDEVKAKYPHFQFQHSYGLGVLFPKGCSDRFKEILKNKEEIQDMYKLEHHHHHH | soluble
MSLDNGIELPGVSFWGGNILQDTDGKYHLFVCGWPEDSPKGHMFWSNSTVFHAVSDRLEGPFKIQNSVGKGHNPEAFQLKDGRVVVYVIDGYYIADGVDSKVWTYGKFSFDSRDRKIIEGLSNLTFARRQDDSYLMVCRGGGVWISKDGLSPYMQLTDKRVYPDVEGRFEDPVVWRDELQYHLIVNDWLGRIAFYQRSKDGVHWVTEQGEAYVPGVSFHKDGAVEHWFKYERPKVFQDEKGRAVQMNFAVIDTIKWNDLPNEGHHHHHH | not soluble
MGFFSRDIQTMEDLLLHGLRDIYYAEQQITKALPKMIEQATNRDLSQGLTSHLEETQKQIERLDQVFKKLGQKPSGVNCPAIDGLIKEADETAGEIADKTVLDAAIVANAQAVEHYEIARYGTLIAWAEELGHDDIVRFLTTNLNEEKAANTKLNTVALRKGVNRKAAS | soluble
MFDLPVETEEQRRNYRIFRKELIQEGFVMIQYSIYVRVCPSREFANRIENRIKKNLPLEGNVRLLCVTEKQYDDMKLLVGSRQTSETAIGTERLIIILEHHHHHH | not soluble
EKDTIAAEHKQEASVLLNLHRNKINYLIGETMARMTSLSIAIDRPVDIKKMQSILEKTFDSEPRFSGLYFLNAKGDVTASTTELKTKVNLADRSFFIKAKETKKTVISDSYSSRITGQPIFTICVPVLDSKRNVTDYLVAAIQIDYLKNLINLLSPDVYIEVVNQDGKMIFASGQASHAEDQKPVSGYLDDISWNMKVYPNPVTIEELSKS | not soluble
MKLMFASDIHGSLPATERVLERFAQSGARWLVILGDVLNHGPRNALPEGYAPAQVAERLNAVATQIIAVRGNCDSEVDQMLLHFPITAPWQQILTQERRLFLTHGHLFGPTNLPALHTGDVLVYGHTHLPVAQQQEGLYHFNPGSVSIPKGGYAASYGILDDNVLSVIALNDQSIIAQVAINS | not soluble
MSLVELQEIFDVSYGSKLDLNKMSSFNPTINFVGRSGKNNGVTASVDLLKNTKPYPAGLLTVALGGSVLSTFLQNKPFYTAQNVAVLNPKTEMTEQQKLFYCAAIFANAYRFSACGREANRTLRQLFVPSLDEIPSWVESVNLNPSAGVTEPKLKESLDLPVVRQSKRLDEIFTIQNGIAATKLKEFEQRQKDTVVYIRPASTQARTLRSYIARDSVDEKHIFPCHTLFTSTNGEGSHTYSYVSTCEFVANSDVAVLTPIQSDMPIEVKLYYAKCITANRYLFSYGRKPKGEKLKSIMLPYFDQQEDFDYICRFIHTLLFSNNLEGHHHHHH | soluble
MGISDNDVQKQLRHMMAFIEQEANEKAEEIDAKAEEEFNIEKGRLVQQQRQKIMEFFEKKEKQVELQRKIQASNSLNAGRLRCLKAREDHIGAVLDEARSNLSRISGDAARYPAILKGLVMQGLLQLLEKEVVLRCREKDLRLVEQLLPECLDGLQKEWGSTTKVVLDKQNFLPSESAGGVELSARAGKIKVSSTLESRLELIANQIVPQVRTALFGPNPNRSFFD | not soluble
MRLTKQTNYAVRMLMYCAANEGKLSRIPEIARAYGVSELFLFKILQPLNKAGLVETVRGRNGGVRLGKPAEKISLFDVVRVTEDSFAMAECFEDGAVECPLVDSCGLNSALRKALNAFFDVLAEYSIDDLVKARPQINFLLGIDTEMPKIAALPAA | not soluble
MPVLNLNDPQAVERYEEFMRQSPYGQVTQDLGWAKVKNNWEPVDVYLEDDQGAIIAAMSMLLGDTPTDKKFAYASKGPVMDVTDVDLLDRLVDEAVKALDGRAYVLRFDPEVAYSDEFNTTLQDHGYVTRNRNVADAGMHATIQPRLNMVLDLTKFPDAKTTLDLYPSKTKSKIKRPFRDGVEVHSGNSATELDEFFKTYTTMAERHGITHRPIEYFQRMQAAFDADTMRIFVAEREGKLLSTGIALKYGRKIWYMYAGSMDGNTYYAPYAVQSEMIQWALDTNTDLYDLGGIESESTDDSLYVFKHVFVKDAPREYIGEIDKVLDPEVYAELVKD | soluble
MGSDKIHHHHHHLPTIEQNRAPPFLAGLFCAIDLERRFLSNGKQKDFIMLDANTAQNPALLTVGYEGTDLRRFLACLEQSGVKTLVDVRERAQSRKKGFSKTALAEALAGIGIRYVHLRDLGDPKPGRDAARAGDYETFRKVFTSHMDTDAAKSALSELDTLAKEDRTCILCFERCHTECHRAIVATYLKELSPYDVVHVEV | not soluble
MGSDKIHHHHHHMVEKLASSEVANRLNEWYDTIKQQDVERASKLRNEVQEAINQMEEDQNVLQYFNLIDSRFRQVIEEFDKSKTILKSIKNQTERSETDQLLRYYYFFFNGLYEFYKRNYIQAIHYYRQAENFLISIPDEIEHAEFHIQLANAYYGIEQNFFSLSHAKKALNIYLNHENYVNRLITTQLTIAANELDLKQYGSAETLYKKAIKTASEHNHAFMEVLGYFNLGICYELQDKLEFARDCFEAALDISYPQENKRDSYLRIKYMLARTLFKMELVDEAMDWFEDAQTLVDATNEETYQAKLKIIYSIYKTYDETSIDNGLEVLREKKLWHDVSDLTTNAARHFKKKEMFKLATKYFSEALLAKEKIPMLHKEVESE | not soluble
MDNPEPARIVRLMEHRADIAIVGGGLNGPALALALAQSGQSVVLVDALPDPLRTDAEFDGRAYALALASQRLLAAVGVWDHVAEAAQPMLEIKVSDGHAGAGPSPFFLHFDHAEIEEGPMGYMVEDRYLRRALLAAMEDAPRITRLNGAAVTAQQTDGTGVVLTLADGSHLRAGLVVGCDGRKSGTATRAGIKRTGWDYGQTALVCAIAHERPHHGIAHQFFMPPGPLAILPLPGNRSSIVWSERTEAAARINALPEAEYLEILRPRFGDFLGEIRLEGARFTYPLNLTVANAFVAERLALVGDAAHGMHPIAGQGLNAGLRDVGALAEVLILAARRGEDIGAAPVLERYQQWRRFDTATLALATDAFNRLFSNDNPLLRLGRDVGMGVIGAFPGLRRGFVREATGLTGDLPKLMQGRAILEHHHHHH | not soluble
MGSDKIHHHHHHMSSEHQLLVGLLKKLKADALVLPTLPEVAMRVQEVVSRPDSSPKQVAEIIGQDAAISARMIKVANSAMYSRGIKAENINAAVTRIGLTQIKAIATSVAMEQLFISTNEMVWEVMDEVWRASIEVTSAACALLLKYSKTHKGCGLNYDTLTLASLVHNIGALPVLTEAEANPHLFTSIEQLRALVRKMQGPLGRAVLKSWDFSPEVTEVVERWADLPYLPEQVTYLDFVRAAAFYTGELRAGHDLEERLDVFLQRGLPVSPEYLGSDEFLDNYHSIKLSYE | not soluble
GPGSMGTMKDKNKCTFRYFEVLPIDHEPEYQNGYVCDICFMEYSEGPFFHCSKSGKDVCLRCGGKMGLTPFTALVSKVMRPTVYWSESESSRAIALCYQIHRDILGCHFIDGANLLISTRDDLPSYFIDSNSCIEKSIVLSRSDIERRFPWAGEVAEVMGVNAVSFHETSACNDQSRLCFLSSFRVEGAFIEFRFSDGFCELVHCENGTIVAIRDSAVLSCFLMGLPVRWGRSLPKAASSVLEWYLKGGQR | not soluble
